Measured values: PMC11934133 (2025)

T1: Zika virus SPH2015 nonstructural protein 1 (NS1) (Zika virus (strain SPH2015))
T1 chain: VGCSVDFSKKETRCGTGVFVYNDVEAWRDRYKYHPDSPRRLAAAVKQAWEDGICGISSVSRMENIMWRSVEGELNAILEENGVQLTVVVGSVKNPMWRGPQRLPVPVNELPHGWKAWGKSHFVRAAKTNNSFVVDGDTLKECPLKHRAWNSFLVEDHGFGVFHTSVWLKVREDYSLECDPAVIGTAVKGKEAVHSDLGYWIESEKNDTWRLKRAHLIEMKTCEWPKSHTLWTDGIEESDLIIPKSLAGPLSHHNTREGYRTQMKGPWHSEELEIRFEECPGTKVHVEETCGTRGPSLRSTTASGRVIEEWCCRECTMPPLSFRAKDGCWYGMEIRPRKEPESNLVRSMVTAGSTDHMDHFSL

B1: ZIKV_NbD6 with C-terminal StrepTag-II (VHH)
VHH: EVQLVESGGGSVQPGGSLRLSCAASGFAFSHYAMRWVRQAPGKGLEWVSVINSDGEDTWYADSVKGRFTISRDNAKNTLYLQMNSLKPEDTGVYYCAIGRTHDTKGQGTQVTVSS
B2: GST-tagged ZIKV_NbD6 (VHH)
VHH: EVQLVESGGGSVQPGGSLRLSCAASGFAFSHYAMRWVRQAPGKGLEWVSVINSDGEDTWYADSVKGRFTISRDNAKNTLYLQMNSLKPEDTGVYYCAIGRTHDTKGQGTQVTVS
B3: ZIKV_Nb32 with C-terminal StrepTag-II (VHH)
VHH: EVQLVESGGGLVQAGGSLRLSCAVSGIDFSRYAITWNRQSPGNQRREWVATLPPADTTVYADAVKGRFTISRDNTKNTVYLQMNSLKPEDTAVYYCATSPRIHNWGQGTQVTVSS
B4: GST-tagged ZIKV_Nb32 (VHH)
VHH: EVQLVESGGGLVQAGGSLRLSCAVSGIDFSRYAITWNRQSPGNQRREWVATLPPADTTVYADAVKGRFTISRDNTKNTVYLQMNSLKPEDTAVYYCATSPRIHNWGQGTQVTVS

Columns and labels:
[1] = molecular target: Zika virus SPH2015 nonstructural protein 1 (NS1) (Zika virus (strain SPH2015)); assay: BLI
[2] = molecular target: T1, Zika virus SPH2015 nonstructural …; assay: BLI
[3] = molecular target: T1, Zika virus SPH2015 nonstructural …; assay: BLI; NS1 saturated with Nb32-Strep
[4] = molecular target: T1, Zika virus SPH2015 nonstructural …; assay: BLI; GST-VHH immobilized, NS1 in solution
[5] = molecular target: T1, Zika virus SPH2015 nonstructural …; assay: BLI; NS1 immobilized, GST-VHH in solution

Binder | Kd [1] | fold increase of koff against the GST-tagged nanobody [1] | fold increase of kon against the GST-tagged nanobody [1] | koff [2] | Kd [3] | koff [4] | koff [5] | fold increase of koff against the orientation with the nanobody immobilised [1]
B1 | 8 nM | 26 fold | 3.6 fold | 0.002 s⁻¹ | 5.9 nM | – | – | –
B2 | – | – | – | – | – | < 1e-07 s⁻¹ | 7.6e-05 s⁻¹ | –
B3 | 0.16 nM | 15 fold | 3.2 fold | 0.00029 s⁻¹ | – | – | – | –
B4 | 0.035 nM | – | – | – | – | < 1e-07 s⁻¹ | 2e-05 s⁻¹ | > 100 fold
